The assay concerns the target coxsackie-adenovirus receptor (CAR) (human) (UniProt P78310). As to the kind of experiment: cell-based or functional assay.

This is an account of results in patent US20040175362A1.

Chain of UniProt P78310 (P78310 20-365): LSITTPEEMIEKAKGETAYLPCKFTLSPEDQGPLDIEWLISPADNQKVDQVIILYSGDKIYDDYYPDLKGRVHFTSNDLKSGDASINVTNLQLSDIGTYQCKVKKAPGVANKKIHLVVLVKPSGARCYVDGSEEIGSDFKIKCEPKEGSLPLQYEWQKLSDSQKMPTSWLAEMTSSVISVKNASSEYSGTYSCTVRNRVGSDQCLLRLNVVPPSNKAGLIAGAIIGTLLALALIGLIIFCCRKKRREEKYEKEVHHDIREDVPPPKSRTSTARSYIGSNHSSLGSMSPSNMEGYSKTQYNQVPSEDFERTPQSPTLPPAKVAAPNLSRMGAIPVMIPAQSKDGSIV

Turning to “RGD-modified Ad5 fiber (… in the HI loop of the knob) as carried by the virions of Ad5lucRGD (from UniProt P11818 1-546; P11818 547-581)”, the gene expression blocked by recombinant Ad5 fiber knob, Ad5lucRGD on 293 cells is 40 to 60%; the gene transfer blocked by knob protein, Ad5lucRGD on primary ovarian cancer cells, MOI 1 pfu/cell was 20%; the luciferase activity blocked by purified fiber knob, Ad5lucRGD on SKOV3.1p1 cells worked out at 20%.
On to “wild type Ad5 fiber as carried by the virions of AdCMVLuc (from UniProt P11818 1-581)”, for which the gene transfer blocked by purified fiber knob, AdCMVLuc on SKOV3.1p1 cells was over 90% and the luciferase activity blocked by recombinant Ad5 fiber knob, AdCMVLuc on 293 cells fell in the range of 85 to 93%.
